From patent publication US20220267422A1

Target: doppel (Prnd) recombinant protein immobilized on the SPR sensor chip
Assay: SPR, BIAcore T100, recombinant protein immobilized on chip

doppel (Prnd) recombinant protein immobilized on the SPR sensor chip, sequence (Q9UKY0 26-152): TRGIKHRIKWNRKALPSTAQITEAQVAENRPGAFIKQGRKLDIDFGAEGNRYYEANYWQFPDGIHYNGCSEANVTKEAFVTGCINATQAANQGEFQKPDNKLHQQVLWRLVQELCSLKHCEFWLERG

Kd: 0.308 nM
B1: Human monoclonal antibody 3D1 (antibody, human IgG1, kappa, V domains shown)
VH: EVQLVESGGGLVQPGGSLRLSCAASGFTFSDYAMSWVRQAPGKGLEWVSRISGSGGTKYYADSVKGRFTISRDNSKNTLYLQMNSLRAEDTAVYYCAKHQVYWALDVWGQGTLVTVSS
VL: DIQMTQSPSSLSASVGDRVTITCRASQSISNWLNWYQQKPGKAPKLLIYATSSLQSGVPSRFSGSGSGTDFTLTISSLQPEDFATYYCQQSYSYPWTFGQGTKVEIKR
